Drawing on article PMC5014583 (Structure (London, England : 1993), 2016), this text covers Kd and dH for 1 molecule.

Test [1] addresses T1, Full-length human calmodulin (CaM) (human, UniProt P0DP23 1-149). The test is described as follows: NMR titration.
Test [2] concerns the target T1, Full-length human calmodulin (CaM). Put plainly: ITC. For orientation: Isothermal titration calorimetry measures the heat released or taken up as one component is titrated into another.

“And” between values parts separate entries of the source, which are not always exact repeats. Equal entries are not always repeated.

In general, Kd refers to the constant that tells how readily two partners part at equilibrium. Low values mean tighter binding, high ones weaker binding. SPANSFHFKEAWKHAIQKAKHMPDPWA [eEF-2KCBD, calmodulin-binding segment of human eEF-2K (residues 74-100)] showed a Kd in test [1] of 36000 nM. Also, in test [2], the equilibrium dissociation constant (Kd) is 153 nM and 137 nM; the dH was -16.6 kcal/mol.
